# Laboratory results reported in publication PMC9352680, “A comprehensive thermodynamic model for RNA binding by the Saccharomyces cerevisiae Pumilio protein PUF4”.
# T1: PUF4 RNA-binding domain (Saccharomyces cerevisiae, UniProt P25339 537-888)
# T1 sequence: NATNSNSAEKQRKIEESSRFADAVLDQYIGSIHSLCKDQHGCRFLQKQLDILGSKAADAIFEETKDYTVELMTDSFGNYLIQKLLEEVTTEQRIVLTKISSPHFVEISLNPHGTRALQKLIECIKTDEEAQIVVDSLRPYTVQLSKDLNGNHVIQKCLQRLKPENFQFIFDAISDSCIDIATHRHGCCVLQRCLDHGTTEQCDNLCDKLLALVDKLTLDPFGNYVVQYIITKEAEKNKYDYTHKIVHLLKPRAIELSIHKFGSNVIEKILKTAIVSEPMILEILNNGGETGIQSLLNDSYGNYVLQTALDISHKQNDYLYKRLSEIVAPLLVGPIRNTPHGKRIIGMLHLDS
# Molecular target: T1, PUF4 RNA-binding domain
# Test: Mg; RNA-MaP; 20 mM Na-HEPES pH 7.4, 30 mM KOAc, 0.75 mM MgCl2, 0.1% Tween-20, 5% glycerol, 0.1 mg/mL BSA, 2 mM DTT; 25 C; 0.0125-409.6 nM protein
# Conditions: tags: N-His6-TEV cleaved; C-SNAP kept, Cy3B-labelled; label: tethered on chip by stalled RNA polymerase
row,Binder,Kd [nM]
1,UCUCUUUAUAUAAUUAUCUCUU (ssRNA) [Ib_S1_P5E.1_K5.1_C5.1_H5.1_[G2A]_A5.1_[T6A]_F5.1_T5.1],1010
2,Id_ii_S4_P3E.4_K3.3_C3.2_H3.3_A3.1_F3.1_T3.2_[T9C] (ssRNA) RNA: UUUGACAACUGAUCGUUCUUUCUCUACACUAUACAUUCUUUCUCGAUCAGUUGUCUUU,597
3,Id_ii_S4_P3E.4_K3.3_C3.2_H3.3_A3.1_F3.1_T3.2_[A10C] (ssRNA) RNA: UUUGACAACUGAUCGUUCUUUCUCUACACUAUAUCUUCUUUCUCGAUCAGUUGUCUUU,926
4,UCUCUUUAUAUCAUUAUCUCUU (ssRNA) [Ib_S1_P5E.1_K5.1_C5.1_H5.1_[G2A]_A5.1_[T6C]_F5.1_T5.1],752
5,UCUCUUUUUAUAAUUAUCUCUU (ssRNA) [Ib_S1_P5E.1_K5.1_C5.1_H5.1_[G2T]_A5.1_[T6A]_F5.1_T5.1],> 2300
6,Id_ii_S4_P4E.2_K4.1_C4.2_[C-2G]_[T-1C]_H4.1_A4.1_F4.1_T4.2_[G10C]_[T11C] (ssRNA) RNA: UUUGACAACUGAUCGUUCUUUCUGCUGUAUAUUACCUUCUUUCUCGAUCAGUUGUCUUU,1.35
7,Id_ii_S4_P4E.2_K4.1_C4.2_[C-2G]_[T-1C]_H4.1_A4.1_F4.1_T4.2_[G10T] (ssRNA) RNA: UUUGACAACUGAUCGUUCUUUCUGCUGUAUAUUAUUUUCUUUCUCGAUCAGUUGUCUUU,0.295
8,Id_ii_S4_P4E.3_K4.2_C4.2_[C-2G]_H4.2_A4.1_F4.1_T4.2_[G10T] (ssRNA) RNA: UUUGACAACUGAUCGUUCUUUCUGUUAUAUAUUAUUUUCUUUCUCGAUCAGUUGUCUUU,10.6
9,Id_ii_S4_P4E.3_K4.2_C4.2_[C-2G]_[T-1C]_H4.2_A4.1_F4.1_T4.2_[G10T]_[T11C] (ssRNA) RNA: UUUGACAACUGAUCGUUCUUUCUGCUAUAUAUUAUCUUCUUUCUCGAUCAGUUGUCUUU,19.6
10,Id_ii_S4_P4E.2_K4.1_C4.2_[T-1G]_H4.1_A4.1_F4.1_T4.2_[G10A]_[T11G] (ssRNA) RNA: UUUGACAACUGAUCGUUCUUUCUCGUGUAUAUUAAGUUCUUUCUCGAUCAGUUGUCUUU,1.39
11,Id_ii_S4_P4E.2_K4.1_C4.2_[C-2T]_[T-1A]_H4.1_A4.1_F4.1_T4.2_[T11C] (ssRNA) RNA: UUUGACAACUGAUCGUUCUUUCUUAUGUAUAUUAGCUUCUUUCUCGAUCAGUUGUCUUU,0.368
12,Id_ii_S4_P4E.2_K4.1_C4.2_H4.1_A4.1_F4.1_T4.2_[G10A] (ssRNA) RNA: UUUGACAACUGAUCGUUCUUUCUCUUGUAUAUUAAUUUCUUUCUCGAUCAGUUGUCUUU,0.324
13,Id_ii_S4_P4E.2_K4.1_C4.2_[T-1A]_H4.1_A4.1_F4.1_T4.2_[G10A] (ssRNA) RNA: UUUGACAACUGAUCGUUCUUUCUCAUGUAUAUUAAUUUCUUUCUCGAUCAGUUGUCUUU,0.453
14,Id_ii_S4_P4E.2_K4.1_C4.2_[T-1G]_H4.1_A4.1_F4.1_T4.2 (ssRNA) RNA: UUUGACAACUGAUCGUUCUUUCUCGUGUAUAUUAGUUUCUUUCUCGAUCAGUUGUCUUU,0.364
15,Id_ii_S4_P4E.2_K4.1_C4.2_[C-2A]_[T-1G]_H4.1_A4.1_F4.1_T4.2_[G10A]_[T11A] (ssRNA) RNA: UUUGACAACUGAUCGUUCUUUCUAGUGUAUAUUAAAUUCUUUCUCGAUCAGUUGUCUUU,1.62
16,Id_ii_S4_P4E.2_K4.1_C4.2_[C-2G]_H4.1_A4.1_F4.1_T4.2_[G10C]_[T11C] (ssRNA) RNA: UUUGACAACUGAUCGUUCUUUCUGUUGUAUAUUACCUUCUUUCUCGAUCAGUUGUCUUU,1.76
17,Id_ii_S4_P4E.2_K4.1_C4.2_[C-2T]_H4.1_A4.1_F4.1_T4.2_[G10T]_[T11G] (ssRNA) RNA: UUUGACAACUGAUCGUUCUUUCUUUUGUAUAUUAUGUUCUUUCUCGAUCAGUUGUCUUU,0.308
18,Id_ii_S4_P4E.2_K4.1_C4.2_[T-1C]_H4.1_A4.1_F4.1_T4.2_[G10T]_[T11C] (ssRNA) RNA: UUUGACAACUGAUCGUUCUUUCUCCUGUAUAUUAUCUUCUUUCUCGAUCAGUUGUCUUU,0.317
19,Id_ii_S4_P4E.3_K4.2_C4.2_[C-2G]_[T-1G]_H4.2_A4.1_F4.1_T4.2_[G10A] (ssRNA) RNA: UUUGACAACUGAUCGUUCUUUCUGGUAUAUAUUAAUUUCUUUCUCGAUCAGUUGUCUUU,125
20,Id_ii_S4_P4E.2_K4.1_C4.2_[C-2G]_H4.1_A4.1_F4.1_T4.2_[G10T]_[T11A] (ssRNA) RNA: UUUGACAACUGAUCGUUCUUUCUGUUGUAUAUUAUAUUCUUUCUCGAUCAGUUGUCUUU,0.515
21,Id_ii_S4_P4E.2_K4.1_C4.2_[T-1A]_H4.1_A4.1_F4.1_T4.2_[T11G] (ssRNA) RNA: UUUGACAACUGAUCGUUCUUUCUCAUGUAUAUUAGGUUCUUUCUCGAUCAGUUGUCUUU,1.11
22,Id_ii_S4_P4E.2_K4.1_C4.2_[C-2A]_[T-1A]_H4.1_A4.1_F4.1_T4.2_[G10T] (ssRNA) RNA: UUUGACAACUGAUCGUUCUUUCUAAUGUAUAUUAUUUUCUUUCUCGAUCAGUUGUCUUU,1.56
23,Id_ii_S4_P4E.2_K4.1_C4.2_[C-2T]_[T-1A]_H4.1_A4.1_F4.1_T4.2_[G10A]_[T11C] (ssRNA) RNA: UUUGACAACUGAUCGUUCUUUCUUAUGUAUAUUAACUUCUUUCUCGAUCAGUUGUCUUU,1.15

row,Binder,Kd [nM]
1,Id_ii_S4_P4E.2_K4.1_C4.2_H4.1_A4.1_F4.1_T4.2_[G10T] (ssRNA) RNA: UUUGACAACUGAUCGUUCUUUCUCUUGUAUAUUAUUUUCUUUCUCGAUCAGUUGUCUUU,0.116
2,Id_ii_S4_P4E.2_K4.1_C4.2_[C-2T]_H4.1_A4.1_F4.1_T4.2_[T11C] (ssRNA) RNA: UUUGACAACUGAUCGUUCUUUCUUUUGUAUAUUAGCUUCUUUCUCGAUCAGUUGUCUUU,0.339
3,Id_ii_S4_P4E.2_K4.1_C4.2_[C-2T]_[T-1A]_H4.1_A4.1_F4.1_T4.2 (ssRNA) RNA: UUUGACAACUGAUCGUUCUUUCUUAUGUAUAUUAGUUUCUUUCUCGAUCAGUUGUCUUU,0.659
4,Id_ii_S4_P4E.2_K4.1_C4.2_[C-2T]_H4.1_A4.1_F4.1_T4.2 (ssRNA) RNA: UUUGACAACUGAUCGUUCUUUCUUUUGUAUAUUAGUUUCUUUCUCGAUCAGUUGUCUUU,0.37
5,Id_ii_S4_P4E.2_K4.1_C4.2_[C-2A]_H4.1_A4.1_F4.1_T4.2_[G10T] (ssRNA) RNA: UUUGACAACUGAUCGUUCUUUCUAUUGUAUAUUAUUUUCUUUCUCGAUCAGUUGUCUUU,0.312
6,Id_ii_S4_P4E.2_K4.1_C4.2_[C-2T]_H4.1_A4.1_F4.1_T4.2_[G10A]_[T11C] (ssRNA) RNA: UUUGACAACUGAUCGUUCUUUCUUUUGUAUAUUAACUUCUUUCUCGAUCAGUUGUCUUU,0.493
7,Id_ii_S4_P4E.2_K4.1_C4.2_[C-2A]_[T-1A]_H4.1_A4.1_F4.1_T4.2_[G10A] (ssRNA) RNA: UUUGACAACUGAUCGUUCUUUCUAAUGUAUAUUAAUUUCUUUCUCGAUCAGUUGUCUUU,1.37
8,Id_ii_S4_P4E.2_K4.1_C4.2_[T-1C]_H4.1_A4.1_F4.1_T4.2_[G10A]_[T11A] (ssRNA) RNA: UUUGACAACUGAUCGUUCUUUCUCCUGUAUAUUAAAUUCUUUCUCGAUCAGUUGUCUUU,0.435
9,Id_ii_S4_P4E.2_K4.1_C4.2_[T-1G]_H4.1_A4.1_F4.1_T4.2_[G10T] (ssRNA) RNA: UUUGACAACUGAUCGUUCUUUCUCGUGUAUAUUAUUUUCUUUCUCGAUCAGUUGUCUUU,0.196
10,Id_ii_S4_P4E.3_K4.2_C4.2_[C-2G]_H4.2_A4.1_F4.1_T4.2_[G10C] (ssRNA) RNA: UUUGACAACUGAUCGUUCUUUCUGUUAUAUAUUACUUUCUUUCUCGAUCAGUUGUCUUU,38.1
11,Id_ii_S4_P4E.2_K4.1_C4.2_[C-2A]_[T-1C]_H4.1_A4.1_F4.1_T4.2_[G10T]_[T11A] (ssRNA) RNA: UUUGACAACUGAUCGUUCUUUCUACUGUAUAUUAUAUUCUUUCUCGAUCAGUUGUCUUU,0.625
12,Id_ii_S4_P4E.2_K4.1_C4.2_[C-2A]_[T-1C]_H4.1_A4.1_F4.1_T4.2_[G10T]_[T11C] (ssRNA) RNA: UUUGACAACUGAUCGUUCUUUCUACUGUAUAUUAUCUUCUUUCUCGAUCAGUUGUCUUU,0.306
13,Id_ii_S4_P4E.2_K4.1_C4.2_H4.1_A4.1_F4.1_T4.2_[G10C] (ssRNA) RNA: UUUGACAACUGAUCGUUCUUUCUCUUGUAUAUUACUUUCUUUCUCGAUCAGUUGUCUUU,0.434
14,Id_ii_S4_P4E.2_K4.1_C4.2_[C-2A]_H4.1_A4.1_F4.1_T4.2_[G10A]_[T11A] (ssRNA) RNA: UUUGACAACUGAUCGUUCUUUCUAUUGUAUAUUAAAUUCUUUCUCGAUCAGUUGUCUUU,1.35
15,Id_ii_S4_P4E.2_K4.1_C4.2_[T-1C]_H4.1_A4.1_F4.1_T4.2_[G10T]_[T11G] (ssRNA) RNA: UUUGACAACUGAUCGUUCUUUCUCCUGUAUAUUAUGUUCUUUCUCGAUCAGUUGUCUUU,0.173
16,Id_ii_S4_P4E.2_K4.1_C4.2_[C-2T]_H4.1_A4.1_F4.1_T4.2_[G10A]_[T11G] (ssRNA) RNA: UUUGACAACUGAUCGUUCUUUCUUUUGUAUAUUAAGUUCUUUCUCGAUCAGUUGUCUUU,3.49
17,Id_ii_S4_P4E.2_K4.1_C4.2_[C-2A]_[T-1C]_H4.1_A4.1_F4.1_T4.2_[G10C] (ssRNA) RNA: UUUGACAACUGAUCGUUCUUUCUACUGUAUAUUACUUUCUUUCUCGAUCAGUUGUCUUU,1.24
18,Id_ii_S4_P4E.2_K4.1_C4.2_[C-2A]_[T-1G]_H4.1_A4.1_F4.1_T4.2_[G10T]_[T11C] (ssRNA) RNA: UUUGACAACUGAUCGUUCUUUCUAGUGUAUAUUAUCUUCUUUCUCGAUCAGUUGUCUUU,2.16
19,Id_ii_S4_P4E.2_K4.1_C4.2_[C-2T]_[T-1A]_H4.1_A4.1_F4.1_T4.2_[G10T]_[T11C] (ssRNA) RNA: UUUGACAACUGAUCGUUCUUUCUUAUGUAUAUUAUCUUCUUUCUCGAUCAGUUGUCUUU,0.343
20,Id_ii_S4_P4E.2_K4.1_C4.2_[C-2T]_[T-1C]_H4.1_A4.1_F4.1_T4.2_[G10T]_[T11C] (ssRNA) RNA: UUUGACAACUGAUCGUUCUUUCUUCUGUAUAUUAUCUUCUUUCUCGAUCAGUUGUCUUU,0.319
21,Id_ii_S4_P4E.2_K4.1_C4.2_H4.1_A4.1_F4.1_T4.2_[G10A]_[T11A] (ssRNA) RNA: UUUGACAACUGAUCGUUCUUUCUCUUGUAUAUUAAAUUCUUUCUCGAUCAGUUGUCUUU,0.422
22,UCUCUUUCUAUCAUUAUCUCUU (ssRNA) [Ib_S1_P5E.1_K5.1_C5.1_H5.1_[G2C]_A5.1_[T6C]_F5.1_T5.1],> 2300
